Test results taken from US20250002527A1, “STEROID COMPOUND AND CONJUGATE THEREOF” (DUALITY BIOLOGICS (SUZHOU) CO., LTD., priority 2021, published 2025).

What was measured:
Type in all cases: cell-based
human PBMC cells [1] = test: TNF-α secretion from PBMC under R848 stimulation (compounds); conditions: R848 5 μM, 24 hours, mean ± standard deviation
Description: (§1) The compounds of the present application were tested for their inhibitory effect on the production of peripheral blood monocytes. The peripheral blood monocytes were treated in vitro with the ligand-drug conjugate at different concentrations, and IFNα and TNFα generated by the peripheral blood monocytes were quantitatively detected after a certain time. The compounds of the present invention were evaluated for in-vitro activity.
(§2) The cryopreserved human PBMC cells were resuspended in a complete medium and counted, and the cell suspension was adjusted to 2.5×10*6 cells/mL with the culture medium. After the suspension was centrifuged to collect the cells the next day, the cells were resuspended using fresh culture medium. Test compounds were diluted to 4-fold final concentration in cell culture medium, 50 μL of the compounds were added into a 96-well cell plate, and 100 μL of diluted cells ([…]) were added into each well of the 96-well plate containing the compounds, followed by addition of 50 μL R848 to a final concentration of 5 μM. The cell plate was incubated at 37° C. with 5% CO2 for 24 hours. The supernatant was collected, and the TNF-α and IFN-α concentration levels in the supernatant were detected using an ELISA kit.
TNF-α concentration assay was performed using Dakewe TNF-α ELISA kit (Cat #1117202), 100 μL of the serially-diluted cytokine standard was added into each well, 100 μL of the above supernatant diluted 10-fold was added into each well, and 100 μL of 1× dilution buffer R was added into each blank well. 50 μL of biotinylated antibody working solution was added into each well. After mixing well, the plate was covered with the plate-sealing membrane and incubated at room temperature for 3 hours. The plate was washed for 3 times: the liquid in each well was discarded, and 300 μL of 1× washing buffer working solution was added into each well; after 1 minute of residence, the liquid in the wells was discarded. The procedure was repeated for 3 times. 100 μL of Streptavidin-HRP working solution was added into each well. The plate was covered with the plate-sealing membrane and incubated at room temperature for 20 minutes. The plate was washed for 3 times, 100 μL of TMB liquid was added into each well, and the plate was incubated for 25 minutes at room temperature (18-25° C.) in the dark. The reaction was stopped by adding 100 μL stop solution rapidly to each well. The reading at a wavelength of 450 nm was detected by an M2e instrument within 10 minutes after termination.
(§3) The contents of TNF-α and IFN-α were calculated from the OD450 values.

human PBMC cells [2] = test: IFN-α secretion from PBMC under R848 stimulation (compounds); conditions: R848 5 μM, 24 hours, mean ± standard deviation
Description: as §1, §2
50 μL of biotinylated antibody working solution was added into each well. After mixing well, the plate was covered with the plate-sealing membrane and incubated at room temperature for 3 hours. […] The procedure was repeated for 3 times. 100 μL of Streptavidin-HRP working solution was added into each well. The plate was covered with the plate-sealing membrane and incubated at room temperature for 20 minutes. The plate was washed for 3 times, 100 μL of TMB liquid was added into each well, and the plate was incubated for 25 minutes at room temperature (18-25° C.) in the dark. The reaction was stopped by adding 100 μL stop solution rapidly to each well. The reading at a wavelength of 450 nm was detected by an M2e instrument within 10 minutes after termination.
as §3

human PBMC cells [3] = test: R848-induced IL8 release from PBMCs (drug conjugates, FIG. 1d); conditions: incubation concentration 300 nm
Description: (§4) 1a: R848-induced IFNα release from PBMCs; 1b: R848-induced TNFα release from PBMCs; 1c: R848-induced IL6 release from PBMCs, 1d: R848-induced IL8 release from PBMCs.
(§5) The inhibitory effect of the ligand-drug conjugate (ADC) of the present application on the production of IFNα by peripheral blood monocytes was examined. The peripheral blood monocytes were treated in vitro with the ligand-drug conjugate at different concentrations, and IFNα and TNFα generated by the peripheral blood monocytes were quantitatively detected after a certain time. The ligand-drug conjugates were evaluated for in-vitro activity.
(§6) The cryopreserved human PBMC cells were resuspended in a complete medium and counted, and the cell suspension was adjusted to 2.5×10*6 cells/mL with the culture medium. After the suspension was centrifuged to collect the cells the next day, the cells were resuspended using fresh culture medium, and 100 μL of diluted cells ([…]) were added into a 96-well plate. The test samples were diluted to 3-fold final stimulation concentration using fresh culture medium, 50 μL of the diluted test samples were added into the 96-well cell plate, and the cell plate was incubated at 37° C. with 5% CO2 for 12 hours, followed by addition of 50 μL 20 μM R848 each well. The cell plate was incubated at 37° C. with 5% CO2 for 20 hours. The supernatant was collected, and the cytokine concentration in the supernatant was detected using a kit.
(§7) IL-8 concentration assay was performed using Dakewe IL-8 ELISA kit (Cat #1110802), 100 μL of the serially-diluted cytokine standard was added into each well, 100 μL of the above supernatant diluted 2-fold was added into each well, and 100 μL of 1× dilution buffer R was added into each blank well. 50 μL of biotinylated antibody working solution was added into each well. After mixing well, the plate was covered with the plate-sealing membrane and incubated at room temperature for 3 hours. […] The reading at a wavelength of 450 nm was detected by an M2e instrument within 10 minutes after termination.

human PBMC cells [4] = test: R848-induced IL6 release from PBMCs (drug conjugates, FIG. 1c); conditions: incubation concentration 300 nm
Description: as §4, §5, §6
IL-6 concentration assay was performed using Dakewe IL-6 ELISA kit (Cat #DKW12-1060-096), 100 μL of serially-diluted cytokine standard was added into each well, 100 μL of the above supernatant diluted 2-fold was added into each well, and 100 μL of 1× dilution buffer R was added into each blank well. 50 μL of biotinylated antibody working solution was added into each well. After mixing well, the plate was covered with the plate-sealing membrane and incubated at room temperature for 3 hours. […] The reading at a wavelength of 450 nm was detected by an M2e instrument within 10 minutes after termination.

human PBMC cells [5] = test: R848-induced IFNα release from PBMCs (drug conjugates, FIG. 1a); conditions: incubation concentration 300 nm
Description: as §4, §5, §6
as §7, with “IFN-α concentration” for “IL-8 concentration”, “Dakewe […]” for “Dakewe IL-8”, “(Cat #1110012),” for “(Cat #1110802),”

human PBMC cells [6] = test: R848-induced TNFα release from PBMCs (drug conjugates, FIG. 1b); conditions: incubation concentration 300 nm
Description: as §4, §5, §6
as §7, with “TNF-α” for “IL-8”, “#1117202),” for “#1110802),”, “10-fold” for “2-fold”

Molecule	TNF-α secretion (pg/mL) from PBMC under R848 stimulation (human PBMC cells [1]; compound 4 nM) [pg/mL]	TNF-α secretion (pg/mL) from PBMC under R848 stimulation (human PBMC cells [1]; compound 20 nM) [pg/mL]	TNF-α secretion (pg/mL) from PBMC under R848 stimulation (human PBMC cells [1]; compound 100 nM) [pg/mL]	IFN-α secretion (pg/mL) from PBMC under R848 stimulation (human PBMC cells [2]; compound 20 nM) [pg/mL]	IFN-α secretion (pg/mL) from PBMC under R848 stimulation (human PBMC cells [2]; compound 100 nM) [pg/mL]	IFN-α secretion (pg/mL) from PBMC under R848 stimulation (human PBMC cells [2]; compound 4 nM) [pg/mL]	IL-8 contents in the detection system (human PBMC cells [3]) [pg/mL]	IL-6 contents in the detection system (human PBMC cells [4]) [pg/mL]	IFN-α contents in the detection system (human PBMC cells [5]) [pg/mL]	TNF-α contents in the detection system (human PBMC cells [6]) [pg/mL]
C[C@]12C=CC(=O)C=C1CC[C@@H]1[C@@H]2[C@@H](O)C[C@@]2(C)[C@H]1C[C@H]1O[C@@H](c3ccc(Cc4cccc(N)c4)cc3)O[C@]12C(=O)CO [Compound 14]	868	465.6	471.9	10.2 ± 10.2	13 ± 13	–	–	–	–	–
C[C@@H]1C[C@H]2[C@@H]3CCC4=CC(=O)C=C[C@]4(C)[C@@]3(F)[C@@H](O)C[C@]2(C)[C@@]1(O)C(=O)CO [Dexamethasone, dexamethasone, reference compound]	1446.5	761.9	396.4	169.6 ± 94.4	0 ± 0	620.7 ± 70.4	–	–	–	–
Conjugate 19: antibody BIIB059 reacted with Compound 9 "to give Conjugate 19"; 4.75 by LC-MS (conjugate, chains of the INN, looked up, Compound 9 conjugate, antibody BIIB059 reacted with Compound 9 "to give Conjugate 19"; 4.75 by LC-MS) VH: DVQLVESGGGLVKPGGSLRLSCAASGFTFSTYTMSWVRQAPGKGLEWVATISPGDSFGYYYPDSVQGRFTISRDNAKNSLYLQMNSLRAEDTAVYYCTRDIYYNYGAWFAYWGQGTLVTVSS VL: DIQLTQSPSSLSASVGDRVTITCKASQSVDYDGDSYMNWYQQKPGKAPKLLIYAASTLESGVPSRFSGSGSGTDFTLTISSLQPEDFATYYCQQANEDPRTFGQGTKVEIK	–	–	–	–	–	–	26565.5	8861.7	113.2	761.8
Conjugate 20: antibody BIIB059 reacted with Compound 16 "to give Conjugate 20"; 4.27 by LC-MS (conjugate, chains of the INN, looked up, conjugated to Compound 16, antibody BIIB059 reacted with Compound 16 "to give Conjugate 20"; 4.27 by LC-MS) VH: DVQLVESGGGLVKPGGSLRLSCAASGFTFSTYTMSWVRQAPGKGLEWVATISPGDSFGYYYPDSVQGRFTISRDNAKNSLYLQMNSLRAEDTAVYYCTRDIYYNYGAWFAYWGQGTLVTVSS VL: DIQLTQSPSSLSASVGDRVTITCKASQSVDYDGDSYMNWYQQKPGKAPKLLIYAASTLESGVPSRFSGSGSGTDFTLTISSLQPEDFATYYCQQANEDPRTFGQGTKVEIK	–	–	–	–	–	–	56315.8	34744.1	1422.5	3280.0
Conjugate 21: antibody BIIB059 reacted with Compound 15 "to give Conjugate 21"; 4.30 by LC-MS (conjugate, chains of the INN, looked up, Compound 15 conjugate, antibody BIIB059 reacted with Compound 15 "to give Conjugate 21"; 4.30 by LC-MS) VH: DVQLVESGGGLVKPGGSLRLSCAASGFTFSTYTMSWVRQAPGKGLEWVATISPGDSFGYYYPDSVQGRFTISRDNAKNSLYLQMNSLRAEDTAVYYCTRDIYYNYGAWFAYWGQGTLVTVSS VL: DIQLTQSPSSLSASVGDRVTITCKASQSVDYDGDSYMNWYQQKPGKAPKLLIYAASTLESGVPSRFSGSGSGTDFTLTISSLQPEDFATYYCQQANEDPRTFGQGTKVEIK	–	–	–	–	–	–	43544.9	29867.1	911.9	2644.1
